B1: factor H-related protein 5 (FHR-5), recombinant (natural protein)
chain: EGTLCDFPKIHHGFLYDEEDYNPFSQVPTGEVFYYSCEYNFVSPSKSFWTRITCTEEGWSPTPKCLRMCSFPFVKNGHSESSGLIHLEGDTVQIICNTGYSLQNNEKNISCVERGWSTPPICSFTKGECHVPILEANVDAQPKKESYKVGDVLKFSCRKNLIRVGSDSVQCYQFGWSPNFPTCKGQVRSCGPPPQLSNGEVKEIRKEEYGHNEVVEYDCNPNFIINGPKKIQCVDGEWTTLPTCVEQVKTCGYIPELEYGYVQPSVPPYQHGVSVEVNCRNEYAMIGNNMITCINGIWTELPMCVATHQLKRCKIAGVNIKTLLKLSGKEFNHNSRIRYRCSDIFRYRHSVCINGKWNPEVDCTEKREQFCPPPPQIPNAQNMTTTVNYQDGEKVAVLCKENYLLPEAKEIVCKDGRWQSLPRCVESTAYCGPPPSINNGDTTSFPLSVYPPGSTVTYRCQSFYKLQGSVTVTCRNKQWSEPPRCLDPCVVSEENMNKNNIQLKWRNDGKLYAKTGDAVEFQCKFPHKAMISSPPFRAICQEGKFEYPICE
B2: Factor H (FH), plasma purified (natural protein)
chain: EDCNELPPRRNTEILTGSWSDQTYPEGTQAIYKCRPGYRSLGNVIMVCRKGEWVALNPLRKCQKRPCGHPGDTPFGTFTLTGGNVFEYGVKAVYTCNEGYQLLGEINYRECDTDGWTNDIPICEVVKCLPVTAPENGKIVSSAMEPDREYHFGQAVRFVCNSGYKIEGDEEMHCSDDGFWSKEKPKCVEISCKSPDVINGSPISQKIIYKENERFQYKCNMGYEYSERGDAVCTESGWRPLPSCEEKSCDNPYIPNGDYSPLRIKHRTGDEITYQCRNGFYPATRGNTAKCTSTGWIPAPRCTLKPCDYPDIKHGGLYHENMRRPYFPVAVGKYYSYYCDEHFETPSGSYWDHIHCTQDGWSPAVPCLRKCYFPYLENGYNQNYGRKFVQGKSIDVACHPGYALPKAQTTVTCMENGWSPTPRCIRVKTCSKSSIDIENGFISESQYTYALKEKAKYQCKLGYVTADGETSGSITCGKDGWSAQPTCIKSCDIPVFMNARTKNDFTWFKLNDTLDYECHDGYESNTGSTTGSIVCGYNGWSDLPICYERECELPKIDVHLVPDRKKDQYKVGEVLKFSCKPGFTIVGPNSVQCYHFGLSPDLPICKEQVQSCGPPPELLNGNVKEKTKEEYGHSEVVEYYCNPRFLMKGPNKIQCVDGEWTTLPVCIVEESTCGDIPELEHGWAQLSSPPYYYGDSVEFNCSESFTMIGHRSITCIHGVWTQLPQCVAIDKLKKCKSSNLIILEEHLKNKKEFDHNSNIRYRCRGKEGWIHTVCINGRWDPEVNCSMAQIQLCPPPPQIPNSHNMTTTLNYRDGEKVSVLCQENYLIQEGEEITCKDGRWQSIPLCVEKIPCSQPPQIEHGTINSSRSSQESYAHGTKLSYTCEGGFRISEENETTCYMGKWSSPPQCEGLPCKSPPEISHGVVAHMSDSYQYGEEVTYKCFEGFGIDGPAIAKCLGEKWSHPPSCIKTDCLSLPSFENAIPMGEKKDVYKAGEQVTYTCATYYKMDGASNVTCINSRWTGRPTCRDTSCVNPPTVQNAYIVSRQMSKYPSGERVRYQCRSPYEMFGDEEVMCLNGNWTEPPQCKDSTGKCGPPPPIDNGDITSFPLSVYAPASSVEYQCQNLYQLEGNKRITCRNGQWSEPPKCLHPCVISREIMENYNIALRWTAKQKLYSRTGESVEFVCKRGYRLSSRSHTLRTTCWDGKLEYPTCAKR
B3: FH_(19-20), the C-terminal part of factor H (SCR 19-20), recombinant (domain or fragment)
chain: KDSTGKCGPPPPIDNGDITSFPLSVYAPASSVEYQCQNLYQLEGNKRITCRNGQWSEPPKCLHPCVISREIMENYNIALRWTAKQKLYSRTGESVEFVCKRGYRLSSRSHTLRTTCWDGKLEYPTCAKR
B4: factor H-related protein 1 (FHR-1), recombinant (natural protein)
chain: EATFCDFPKINHGILYDEEKYKPFSQVPTGEVFYYSCEYNFVSPSKSFWTRITCTEEGWSPTPKCLRLCFFPFVENGHSESSGQTHLEGDTVQIICNTGYRLQNNENNISCVERGWSTPPKCRSTDTSCVNPPTVQNAHILSRQMSKYPSGERVRYECRSPYEMFGDEEVMCLNGNWTEPPQCKDSTGKCGPPPPIDNGDITSFPLSVYAPASSVEYQCQNLYQLEGNKRITCRNGQWSEPPKCLHPCVISREIMENYNIALRWTAKQKLYLRTGESAEFVCKRGYRLSSRSHTLRTTCWDGKLEYPTCAKR
B5: factor H-related protein 2 (FHR-2), recombinant (natural protein)
chain: EAMFCDFPKINHGILYDEEKYKPFSQVPTGEVFYYSCEYNFVSPSKSFWTRITCAEEGWSPTPKCLRLCFFPFVENGHSESSGQTHLEGDTVQIICNTGYRLQNNENNISCVERGWSTPPKCRSTISAEKCGPPPPIDNGDITSFLLSVYAPGSSVEYQCQNLYQLEGNNQITCRNGQWSEPPKCLDPCVISQEIMEKYNIKLKWTNQQKLYSRTGDIVEFVCKSGYHPTKSHSFRAMCQNGKLVYPSCEEK

Key:
C3b = C3b (human, UniProt P01024); assay: SPR
SAXS = molecular target: the molecule itself; assay: SAXS

Chain of C3b (P01024 23-667, chain 1 of 2): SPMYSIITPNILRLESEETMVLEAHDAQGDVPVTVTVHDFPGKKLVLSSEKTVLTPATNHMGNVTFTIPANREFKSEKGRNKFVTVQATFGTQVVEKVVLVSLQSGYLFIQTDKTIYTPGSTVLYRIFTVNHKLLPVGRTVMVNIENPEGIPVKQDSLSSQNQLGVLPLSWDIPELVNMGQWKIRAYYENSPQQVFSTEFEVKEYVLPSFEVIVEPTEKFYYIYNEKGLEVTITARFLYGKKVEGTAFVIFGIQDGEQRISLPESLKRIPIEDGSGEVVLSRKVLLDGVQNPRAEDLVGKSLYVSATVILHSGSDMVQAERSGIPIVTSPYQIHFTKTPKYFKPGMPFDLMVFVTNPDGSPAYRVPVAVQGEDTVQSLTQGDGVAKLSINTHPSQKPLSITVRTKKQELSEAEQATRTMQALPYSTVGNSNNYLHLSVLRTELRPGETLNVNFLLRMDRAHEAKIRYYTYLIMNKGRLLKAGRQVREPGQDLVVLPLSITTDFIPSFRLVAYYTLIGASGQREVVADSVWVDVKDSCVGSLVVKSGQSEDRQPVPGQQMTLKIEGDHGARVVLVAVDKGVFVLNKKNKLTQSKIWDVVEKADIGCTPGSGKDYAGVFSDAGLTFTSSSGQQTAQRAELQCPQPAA
Chain of C3b (P01024 749-1663, chain 2 of 2): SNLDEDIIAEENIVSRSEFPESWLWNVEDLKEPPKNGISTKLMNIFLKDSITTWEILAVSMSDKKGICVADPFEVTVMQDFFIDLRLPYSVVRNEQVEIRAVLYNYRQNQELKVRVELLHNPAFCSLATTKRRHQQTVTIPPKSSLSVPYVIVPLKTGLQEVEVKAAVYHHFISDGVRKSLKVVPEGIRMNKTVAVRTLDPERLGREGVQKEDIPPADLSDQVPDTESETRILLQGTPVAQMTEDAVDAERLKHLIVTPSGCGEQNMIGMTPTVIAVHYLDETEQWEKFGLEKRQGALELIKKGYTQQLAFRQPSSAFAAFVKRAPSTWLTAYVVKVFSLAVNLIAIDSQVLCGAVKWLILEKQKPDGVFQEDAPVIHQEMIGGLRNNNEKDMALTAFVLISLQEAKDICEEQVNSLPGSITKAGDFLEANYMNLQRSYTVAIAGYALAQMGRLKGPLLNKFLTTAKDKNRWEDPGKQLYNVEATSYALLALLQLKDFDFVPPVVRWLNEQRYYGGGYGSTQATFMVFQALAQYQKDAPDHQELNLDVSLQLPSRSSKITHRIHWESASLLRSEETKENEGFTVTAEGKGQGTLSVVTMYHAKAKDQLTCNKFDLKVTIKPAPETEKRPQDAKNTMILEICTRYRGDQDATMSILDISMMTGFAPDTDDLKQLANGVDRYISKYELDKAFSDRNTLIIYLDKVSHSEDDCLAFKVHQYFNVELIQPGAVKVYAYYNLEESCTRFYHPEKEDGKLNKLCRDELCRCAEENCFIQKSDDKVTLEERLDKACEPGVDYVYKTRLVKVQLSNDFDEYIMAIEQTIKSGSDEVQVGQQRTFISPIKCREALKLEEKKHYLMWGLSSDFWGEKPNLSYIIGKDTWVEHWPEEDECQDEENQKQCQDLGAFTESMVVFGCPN

Binder | binding result (C3b) | stoichiometry N (SAXS)
B1 | binds | –
B2 | binds | –
B3 | binds | –
B4 | – | 2
B5 | binds | –

— article doi:10.1101/413294 (bioRxiv, 2018)
